Holding throughout (type): binding
Settings in all cases: response relative to ADIFAB2

The nature of assay [1]: Probe fluorescence ratio response to arachidonic acid relative to ADIFAB2. In outline: (§1)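 Each fatty acid's response was expressed relative to ADIFAB2, the rI-FABP-L72A probe, as ΔR/ΔRreference. ΔR is the change in the background-corrected two-wavelength intensity ratio R=Fλ1/Fλ2 from its analyte-free baseline R0. Emission was read near about 420-480 nm for unbound and about 495-580 nm for FFA-bound probe.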

Assay [2] in a line: Probe fluorescence ratio response to linolenic acid relative to ADIFAB2. Put shortly: as §1
Assay [3] can be described thus: Probe fluorescence ratio response to linoleic acid relative to ADIFAB2. Put shortly: as §1
A short description of assay [4]: Probe fluorescence ratio response to oleic acid relative to ADIFAB2. Put shortly:
as §1

A short description of assay [5]: Probe fluorescence ratio response to palmitic acid relative to ADIFAB2. Put shortly:
as §1

The values that follow come from patent US20060257938A1, “Method of screening for drugs that block ligand binding to a lipid binding protein” (priority 2005, published 2006).

Values joined by “and” are separate entries in the source; they are usually repeats but may differ in a detail not shown here. Identical values can stand only once.

B1: 82M1, 72A (protein, listed as Rattus norvegicus)
chain: AFDGTWKVDRNENYEKFMEKMGINVVKRKLGAHDNLKLTITQEGNKFTVKESSNFRNIDVVFELGVDFAYSAADGTELTGTMTMEGNKLVGKFKRVDNGKELIAVREISGNELIQTYTYEGVEAKRIFKKE
modifications: PEPTIDE (1)...(131) wild-type rat intestinal fatty acid binding protein
For B1, the “DR/DR AA” value in assay [1] (Arachidonic acid) was 0.97. Also, the “DR/DR LNA” value in assay [2] was determined as 0.75. Moreover, the “DR/DR LA” value in assay [3] is reported as 0.94. In assay [4], the “DR/DR OA” value stood at 0.92. Also, the “DR/DR PA” value in assay [5] is 0.54.

B2: 82Y2, 72A (protein, listed as Rattus norvegicus)
chain: AFDGTWKVDRNENYEKFMEKMGINVVKRKLGAHDNLKLTITQEGNKFTVKESSNFRNIDVVFELGVDFAYSAADGTELTGTYTMEGNKLVGKFKRVDNGKELIAVREISGNELIQTYTYEGVEAKRIFKKE
modifications: PEPTIDE (1)...(131) wild-type rat intestinal fatty acid binding protein
With B2, the “DR/DR AA” value in assay [1] (Arachidonic acid) came out at 0.65. In addition, the “DR/DR LNA” value in assay [2] amounted to 1.57. Besides, the “DR/DR LA” value in assay [3] turned out to be 1.53. Also, the “DR/DR OA” value in assay [4] was 1.53. In addition, the “DR/DR PA” value in assay [5] is 0.88.

B3: 93M, 72A (protein, listed as Rattus norvegicus)
chain: AFDGTWKVDRNENYEKFMEKMGINVVKRKLGAHDNLKLTITQEGNKFTVKESSNFRNIDVVFELGVDFAYSAADGTELTGTWTMEGNKLVGKMKRVDNGKELIAVREISGNELIQTYTYEGVEAKRIFKKE
modifications: PEPTIDE (1)...(131) wild-type rat intestinal fatty acid binding protein
Consider B3, for which the “DR/DR AA” value in assay [1] (Arachidonic acid) amounted to 0.93. Also, the “DR/DR LNA” value in assay [2] was 1.19. In addition, the “DR/DR LA” value in assay [3] is listed as 1.28. For the same molecule, the “DR/DR OA” value in assay [4] is 1.24. In addition, the “DR/DR PA” value in assay [5] is 0.75.

B4: 104R, 72A (protein, listed as Rattus norvegicus)
chain: AFDGTWKVDRNENYEKFMEKMGINVVKRKLGAHDNLKLTITQEGNKFTVKESSNFRNIDVVFELGVDFAYSAADGTELTGTWTMEGNKLVGKFKRVDNGKELIRVREISGNELIQTYTYEGVEAKRIFKKE
modifications: PEPTIDE (1)...(131) wild-type rat intestinal fatty acid binding protein
Take B4: the “DR/DR AA” value in assay [1] (arachidonic acid) is 1.18 and 1.075. Further, in assay [2], the “DR/DR LNA” value is 0.96 and 0.904. Moreover, the “DR/DR LA” value in assay [3] is 0.93 and 0.962. The “DR/DR OA” value in assay [4] is 0.88 and 0.957. Further, the “DR/DR PA” value in assay [5] was 0.52 and 0.791.

B5: 104R1, 72A (protein, listed as Rattus norvegicus)
chain: AFDGTWKVDRNENYEKFMEKMGINVVKRKLGAHDNLKLTITQEGNKFTVKESSNFRNIDVVFELGVDFAYSAADGTELTGTWTMEGNKLVGKFKRVDNGKELIRVREISGNELIQTYTYEGVEAKRIFKKE
modifications: PEPTIDE (1)...(131) wild-type rat intestinal fatty acid binding protein
For the molecule B5, the “DR/DR AA” value in assay [1] (arachidonic acid) came out at 1.14. Besides, the “DR/DR LNA” value in assay [2] is given as 1.13. Also, in assay [3], the “DR/DR LA” value came to 1.22. Further, in assay [4], the “DR/DR OA” value is reported as 1.20. The “DR/DR PA” value in assay [5] came out at 1.00.

B6: 91A, 72A (protein, listed as Rattus norvegicus)
chain: AFDGTWKVDRNENYEKFMEKMGINVVKRKLGAHDNLKLTITQEGNKFTVKESSNFRNIDVVFELGVDFAYSAADGTELTGTWTMEGNKLVAKFKRVDNGKELIAVREISGNELIQTYTYEGVEAKRIFKKE
modifications: PEPTIDE (1)...(131) wild-type rat intestinal fatty acid binding protein
Take B6: in assay [1] (Arachidonic acid), the “DR/DR AA” value is given as 0.86. In addition, the “DR/DR LNA” value in assay [2] was determined as 0.91. In addition, the “DR/DR LA” value in assay [3] was 0.83. In addition, the “DR/DR OA” value in assay [4] was 0.85. In assay [5], the “DR/DR PA” value is reported as 0.80.

B7: 104S2, 72A (protein, listed as Rattus norvegicus)
chain: AFDGTWKVDRNENYEKFMEKMGINVVKRKLGAHDNLKLTITQEGNKFTVKESSNFRNIDVVFELGVDFAYSAADGTELTGTWTMEGNKLVGKFKRVDNGKELISVREISGNELIQTYTYEGVEAKRIFKKE
modifications: PEPTIDE (1)...(131) wild-type rat intestinal fatty acid binding protein
As for B7, the “DR/DR AA” value in assay [1] (arachidonic acid) was determined as 1.64. In addition, the “DR/DR LNA” value in assay [2] is listed as 1.54. In assay [3], the “DR/DR LA” value came out at 1.71. The “DR/DR OA” value in assay [4] came out at 1.66. For the same molecule, the “DR/DR PA” value in assay [5] is 1.57.

B8: 82V1, 72A (protein, listed as Rattus norvegicus)
chain: AFDGTWKVDRNENYEKFMEKMGINVVKRKLGAHDNLKLTITQEGNKFTVKESSNFRNIDVVFELGVDFAYSAADGTELTGTVTMEGNKLVGKFKRVDNGKELIAVREISGNELIQTYTYEGVEAKRIFKKE
modifications: PEPTIDE (1)...(131) wild-type rat intestinal fatty acid binding protein
Take B8: the “DR/DR AA” value in assay [1] (Arachidonic acid) worked out at 0.86. In assay [2], the “DR/DR LNA” value is given as 0.76. In assay [3], the “DR/DR LA” value is 0.74. Also, the “DR/DR OA” value in assay [4] was found to be 0.65. The “DR/DR PA” value in assay [5] is reported as 0.48.

B9: 93L, 72A (protein, listed as Rattus norvegicus)
chain: AFDGTWKVDRNENYEKFMEKMGINVVKRKLGAHDNLKLTITQEGNKFTVKESSNFRNIDVVFELGVDFAYSAADGTELTGTWTMEGNKLVGKLKRVDNGKELIAVREISGNELIQTYTYEGVEAKRIFKKE
modifications: PEPTIDE (1)...(131) wild-type rat intestinal fatty acid binding protein
As to B9, the “DR/DR AA” value stood at 0.36 in assay [1] (Arachidonic acid) and 0.680 in assay [1] (arachidonic acid). Further, the “DR/DR LNA” value in assay [2] is 0.81 and 0.680. For the same molecule, the “DR/DR LA” value in assay [3] is 1.03 and 0.670. Moreover, the “DR/DR OA” value in assay [4] is 1.05 and 0.770. For the same molecule, the “DR/DR PA” value in assay [5] is 0.62 and 0.560.

B10: 104N1, 72A (protein, listed as Rattus norvegicus)
chain: AFDGTWKVDRNENYEKFMEKMGINVVKRKLGAHDNLKLTITQEGNKFTVKESSNFRNIDVVFELGVDFAYSAADGTELTGTWTMEGNKLVGKFKRVDNGKELINVREISGNELIQTYTYEGVEAKRIFKKE
modifications: PEPTIDE (1)...(131) wild-type rat intestinal fatty acid binding protein
As to B10, in assay [1] (arachidonic acid), the “DR/DR AA” value is given as 1.14. The “DR/DR LNA” value in assay [2] came out at 1.06. In addition, the “DR/DR LA” value in assay [3] turned out to be 0.67. The “DR/DR OA” value in assay [4] is 0.71. Also, in assay [5], the “DR/DR PA” value is on record as 0.52.

B11: 104L1, 72A (protein, listed as Rattus norvegicus)
chain: AFDGTWKVDRNENYEKFMEKMGINVVKRKLGAHDNLKLTITQEGNKFTVKESSNFRNIDVVFELGVDFAYSAADGTELTGTWTMEGNKLVGKFKRVDNGKELILVREISGNELIQTYTYEGVEAKRIFKKE
modifications: PEPTIDE (1)...(131) wild-type rat intestinal fatty acid binding protein
Regarding B11, the “DR/DR AA” value in assay [1] (arachidonic acid) worked out at 0.38. Also, the “DR/DR LNA” value in assay [2] is 0.42. Besides, the “DR/DR LA” value in assay [3] amounted to 0.39. Further, the “DR/DR OA” value in assay [4] came out at 0.48. In assay [5], the “DR/DR PA” value was 0.31.
